In patent US20240270821A1, “GIP/GLP1/GCG TRI-RECEPTOR AGONISTS AND USES THEREOF” (priority 2023, published 2024):
Positions count from the first letter of the chain named. Starred links: 1 amine or outer side, 2 acyl side, 3 side chain; linkers in the order of their positions; H or OH if unused. Non-standard residues stand in square brackets, D forms with d. Groups on a side chain read outwards from the residue. No end group written: not given here. *: point of attachment. C18 diacid = O=C(O)CCCCCCCCCCCCCCCCC(=O)*; γGlu = O=C(O)[C@H](CCC(=O)[*:2])N[*:1]; αMeL = CC(C)C[C@](C)(N)C(=O)O; Dap = NC[C@H](N)C(=O)O; AEEA = NCCOCCOCC(=O)O; Aib = CC(C)(N)C(=O)O

T1: human GIP receptor (human) (UniProt P48546)
T1 sequence (looked up): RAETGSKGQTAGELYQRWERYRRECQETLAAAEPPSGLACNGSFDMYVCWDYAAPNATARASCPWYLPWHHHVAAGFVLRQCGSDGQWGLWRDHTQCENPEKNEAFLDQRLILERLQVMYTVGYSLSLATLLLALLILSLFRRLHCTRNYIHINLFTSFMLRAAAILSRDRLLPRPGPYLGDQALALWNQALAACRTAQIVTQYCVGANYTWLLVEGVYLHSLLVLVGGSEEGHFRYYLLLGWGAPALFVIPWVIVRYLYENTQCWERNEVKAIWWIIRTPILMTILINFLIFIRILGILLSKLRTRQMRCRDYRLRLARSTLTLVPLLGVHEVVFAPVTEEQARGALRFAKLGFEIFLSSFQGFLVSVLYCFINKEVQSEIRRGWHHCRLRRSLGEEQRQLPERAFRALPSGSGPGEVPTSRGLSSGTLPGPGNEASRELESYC

B1: Example 78 (peptide)
chain: YXQGTFTSDFSXXLDKKAQXAFIEWLLEGGPSSGAPPPSGS
modifications: synthetic construct; SITE 2: note = 2-Aminoisobutyric Acid; SITE 12: note = L-ornithine; SITE 13: note = alpha-methyl-leucine; SITE 17: note = Lysine is chemically modified through conjugation of the epsilon-amino group of the Lysine side chain with (2-[2-(2-Amino-ethoxy)-ethoxy]-acetyl)-(gamma-Glu)
B2: Example 8 (peptide)
chain: B1 chain with X12K, W25Y, E28A, A35E
modifications: synthetic construct; SITE 2: note = 2-Aminoisobutyric Acid; SITE 13: note = alpha-methyl-leucine; SITE 17: note = Lysine is chemically modified through conjugation of the epsilon-amino group of the Lysine side chain with (2-[2-(2-Amino-ethoxy)-ethoxy]-acetyl)-(gamma-Glu)-CO-(CH2) 18-CO2H; SITE 20: n
B3: Example 93 (peptide)
chain: B1 chain with W25Y, E28A, S39E
modifications: synthetic construct; SITE 2: note = 2-Aminoisobutyric Acid; SITE 12: note = L-ornithine; SITE 13: note = alpha-methyl-leucine; SITE 17: note = Lysine is chemically modified through conjugation of the epsilon-amino group of the Lysine side chain with (2-[2-(2-Amino-ethoxy)-ethoxy]-acetyl)-(gamma-Glu)
B4: Example 99 (peptide)
chain: B1 chain with W25Y, E28A, S39E, S41E
modifications: synthetic construct; SITE 2: note = 2-Aminoisobutyric Acid; SITE 12: note = L-ornithine; SITE 13: note = alpha-methyl-leucine; SITE 17: note = Lysine is chemically modified through conjugation of the epsilon-amino group of the Lysine side chain with (2-[2-(2-Amino-ethoxy)-ethoxy]-acetyl)-(gamma-Glu)
B5: Example 87 (peptide)
chain: B1 chain with W25Y, E28A, S41T
modifications: synthetic construct; SITE 2: note = 2-Aminoisobutyric Acid; SITE 12: note = L-ornithine; SITE 13: note = alpha-methyl-leucine; SITE 17: note = Lysine is chemically modified through conjugation of the epsilon-amino group of the Lysine side chain with (2-[2-(2-Amino-ethoxy)-ethoxy]-acetyl)-(gamma-Glu)
B6: Example 69 (peptide)
chain: YXQGTFTSDFSXXLDKKAQXAFIEYLLEXGPSSGEPPPGEG
modifications: synthetic construct; SITE 2: note = 2-Aminoisobutyric Acid; SITE 12: note = L-ornithine; SITE 13: note = alpha-methyl-leucine; SITE 17: note = Lysine is chemically modified through conjugation of the epsilon-amino group of the Lysine side chain with (2-[2-(2-Amino-ethoxy)-ethoxy]-acetyl)2-(gamma-Glu)
B7: Example 98 (peptide)
chain: B1 chain with W25Y, E28A, A35E, S39E, S41E
modifications: synthetic construct; SITE 2: note = 2-Aminoisobutyric Acid; SITE 12: note = L-ornithine; SITE 13: note = alpha-methyl-leucine; SITE 17: note = Lysine is chemically modified through conjugation of the epsilon-amino group of the Lysine side chain with (2-[2-(2-Amino-ethoxy)-ethoxy]-acetyl)-(gamma-Glu)
B8: Example 97 (peptide)
chain: B1 chain with W25Y, E28A, A35E, S41E
modifications: synthetic construct; SITE 2: note = 2-Aminoisobutyric Acid; SITE 12: note = L-ornithine; SITE 13: note = alpha-methyl-leucine; SITE 17: note = Lysine is chemically modified through conjugation of the epsilon-amino group of the Lysine side chain with (2-[2-(2-Amino-ethoxy)-ethoxy]-acetyl)-(gamma-Glu)
B9: Example 7 (peptide)
chain: B6 chain with X12K, E28A, X29G, G39S, E40S
modifications: synthetic construct; SITE 2: note = 2-Aminoisobutyric Acid; SITE 13: note = alpha-methyl-leucine; SITE 17: note = Lysine is chemically modified through conjugation of the epsilon-amino group of the Lysine side chain with (2-[2-(2-Amino-ethoxy)-ethoxy]-acetyl)-(gamma-Glu)-CO-(CH2) 18-CO2H; SITE 20: n
B10: Example 94 (peptide)
chain: B1 chain with W25Y, E28A, A35E
modifications: synthetic construct; SITE 2: note = 2-Aminoisobutyric Acid; SITE 12: note = L-ornithine; SITE 13: note = alpha-methyl-leucine; SITE 17: note = Lysine is chemically modified through conjugation of the epsilon-amino group of the Lysine side chain with (2-[2-(2-Amino-ethoxy)-ethoxy]-acetyl)-(gamma-Glu)
B11: Example 71 (peptide)
chain: B6 chain with E35A, G39S
modifications: synthetic construct; SITE 2: note = 2-Aminoisobutyric Acid; SITE 12: note = L-ornithine; SITE 13: note = alpha-methyl-leucine; SITE 17: note = Lysine is chemically modified through conjugation of the epsilon-amino group of the Lysine side chain with (2-[2-(2-Amino-ethoxy)-ethoxy]-acetyl)2-(gamma-Glu)
B12: Example 80 (peptide)
chain: B1 chain with X12R, W25Y, G29X
modifications: synthetic construct; SITE 2: note = 2-Aminoisobutyric Acid; SITE 13: note = alpha-methyl-leucine; SITE 17: note = Lysine is chemically modified through conjugation of the epsilon-amino group of the Lysine side chain with (2-[2-(2-Amino-ethoxy)-ethoxy]-acetyl)2-(gamma-Glu)-CO-(CH2 )16-CO2H; SITE 20:
B13: Example 10 (peptide)
chain: B1 chain with X12K, W25Y, E28A, G40E, S41G
modifications: synthetic construct; SITE 2: note = 2-Aminoisobutyric Acid; SITE 13: note = alpha-methyl-leucine; SITE 17: note = Lysine is chemically modified through conjugation of the epsilon-amino group of the Lysine side chain with (2-[2-(2-Amino-ethoxy)-ethoxy]-acetyl)-(gamma-Glu)-CO-(CH2) 18-CO2H; SITE 20: n
B14: Example 75 (peptide)
chain: B1 chain with W25Y, G29X
modifications: synthetic construct; SITE 2: note = 2-Aminoisobutyric Acid; SITE 12: note = L-ornithine; SITE 13: note = alpha-methyl-leucine; SITE 17: note = Lysine is chemically modified through conjugation of the epsilon-amino group of the Lysine side chain with (2-[2-(2-Amino-ethoxy)-ethoxy]-acetyl)2-(gamma-Glu)
B15: Example 70 (peptide)
chain: B6 chain with E35A
modifications: synthetic construct; SITE 2: note = 2-Aminoisobutyric Acid; SITE 12: note = L-ornithine; SITE 13: note = alpha-methyl-leucine; SITE 17: note = Lysine is chemically modified through conjugation of the epsilon-amino group of the Lysine side chain with (2-[2-(2-Amino-ethoxy)-ethoxy]-acetyl)2-(gamma-Glu)
B16: Example 79 (peptide)
chain: B1 chain with X12R, W25Y, G29X
modifications: synthetic construct; SITE 2: note = 2-Aminoisobutyric Acid; SITE 13: note = alpha-methyl-leucine; SITE 17: note = Lysine is chemically modified through conjugation of the epsilon-amino group of the Lysine side chain with (2-[2-(2-Amino-ethoxy)-ethoxy]-acetyl)-(gamma-Glu)-CO-(CH2) 16-CO2H; SITE 20: n
B17: Example 68 (peptide)
chain: Y[Aib]QGTFTSDFS[Dap][αMeL]LDKK([AEEA-γGlu-C18 diacid])AQ[Aib]AFIEYLLEGGPSSGAPPPGGS-NH2
modifications: ends and bridges not checked

The binders below were run against human GLP1-R (SNAP-GLP-1R expressed in HEK293 cells) (human) (UniProt P43220) (assay: cell-based or functional assay).
human GLP1-R (SNAP-GLP-1R expressed in HEK293 cells) (human), sequence (P43220 24-463): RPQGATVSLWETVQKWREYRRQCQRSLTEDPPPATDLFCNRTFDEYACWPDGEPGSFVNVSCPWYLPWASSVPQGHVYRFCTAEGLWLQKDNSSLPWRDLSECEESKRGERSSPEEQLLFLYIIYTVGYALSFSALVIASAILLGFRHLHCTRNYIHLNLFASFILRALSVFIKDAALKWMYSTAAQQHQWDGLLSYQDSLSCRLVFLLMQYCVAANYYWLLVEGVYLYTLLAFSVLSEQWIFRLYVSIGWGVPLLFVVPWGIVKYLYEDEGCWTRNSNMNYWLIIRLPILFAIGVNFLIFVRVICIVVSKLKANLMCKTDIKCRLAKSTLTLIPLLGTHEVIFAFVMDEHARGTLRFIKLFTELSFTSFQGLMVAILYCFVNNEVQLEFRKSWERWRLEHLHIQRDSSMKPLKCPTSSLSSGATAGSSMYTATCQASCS

Binder | GLP1R Internalization EC50 | Internalization % TOP
B1 | 78.2 nM | 55%
B2 | 63.2 nM | 74%
B3 | 30.4 nM | 50.8%
B4 | 56.9 nM | 46.1%
B5 | 61.8 nM | 45.4%
B6 | 71.9 nM | 58.2%
B7 | 56 nM | 49.3%
B8 | 51.9 nM | 50.7%
B9 | 52.6 nM | 76.3%
B10 | 37.1 nM | 47.2%
B11 | 58.8 nM | 68.6%
B12 | 35.8 nM | 48.2%
B13 | 79.2 nM | 71.9%
B14 | 61.8 nM | 51.9%
B15 | 60 nM | 61.3%
B16 | 56.6 nM | 45.3%
B17 | 95.2 nM | 33.8%

Each binder was assayed against T1, human GIP receptor (human) (assay: cell-based or functional assay).

Binder | Relative cAMP EC50 | cAMP Rel EC50, nM (in the presence of 1% HSA) | cAMP Rel EC50 (in the presence of 1% HSA)
B1 | 0.228 nM | 78.4 nM | –
B2 | 0.231 nM | – | 39.4 nM
B3 | 0.162 nM | 27.9 nM | –
B4 | 0.174 nM | 29.5 nM | –
B5 | 0.128 nM | 12.8 nM | –
B6 | 0.136 nM | 25.6 nM | –
B7 | 0.179 nM | 33.8 nM | –
B8 | 0.176 nM | 23.9 nM | –
B9 | 0.203 nM | – | 50.6 nM
B10 | 0.154 nM | 21.4 nM | –
B11 | 0.105 nM | 48.1 nM | –
B12 | 0.0593 nM | 10.1 nM | –
B13 | 0.226 nM | – | 43 nM
B14 | 0.0578 nM | 16.8 nM | –
B15 | 0.102 nM | 27.4 nM | –
B16 | 0.0773 nM | 14.3 nM | –
B17 | 0.46 nM | 85.1 nM | –

What follows are binders tested against human glucagon receptor (human) (UniProt P47871) (assay: cell-based or functional assay).
human glucagon receptor (human), sequence (P47871 26-477): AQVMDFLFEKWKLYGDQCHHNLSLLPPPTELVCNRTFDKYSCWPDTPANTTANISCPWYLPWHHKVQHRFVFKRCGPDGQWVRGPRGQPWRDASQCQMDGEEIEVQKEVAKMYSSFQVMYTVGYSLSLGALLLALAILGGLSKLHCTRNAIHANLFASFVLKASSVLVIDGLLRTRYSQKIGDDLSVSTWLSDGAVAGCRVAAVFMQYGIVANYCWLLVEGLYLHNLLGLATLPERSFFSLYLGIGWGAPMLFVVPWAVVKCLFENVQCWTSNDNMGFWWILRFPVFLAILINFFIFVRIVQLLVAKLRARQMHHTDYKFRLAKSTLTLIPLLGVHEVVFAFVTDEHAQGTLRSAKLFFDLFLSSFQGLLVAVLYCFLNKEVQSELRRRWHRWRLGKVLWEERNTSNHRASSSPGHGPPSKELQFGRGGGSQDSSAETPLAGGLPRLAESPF

Binder | Relative cAMP EC50 | cAMP Rel EC50, nM (in the presence of 1% HSA) | cAMP Rel EC50 (in the presence of 1% HSA)
B1 | 7.06 nM | 2640 nM | –
B2 | 6.65 nM | – | 1560 nM
B3 | 7.16 nM | 1390 nM | –
B4 | 6.09 nM | 1130 nM | –
B5 | 8.51 nM | 1110 nM | –
B6 | 4.75 nM | 387 nM | –
B7 | 6.91 nM | 867 nM | –
B8 | 6.73 nM | 1270 nM | –
B9 | 5.05 nM | – | 1210 nM
B10 | 8.16 nM | 1220 nM | –
B11 | 8.74 nM | 2800 nM | –
B12 | 7.44 nM | 1190 nM | –
B13 | 7.62 nM | – | 1640 nM
B14 | 4.51 nM | 1040 nM | –
B15 | 6.04 nM | 717 nM | –
B16 | 3.08 nM | 903 nM | –
B17 | 8.55 nM | 1160 nM | –

What follows are binders tested against hGLP-1R (Homo sapiens, UniProt P43220) (assay: cell-based or functional assay).
hGLP-1R, sequence (P43220 24-463): as the sequence (P43220 24-463) above

Binder | Relative cAMP EC50 | cAMP Rel EC50, nM (in the presence of 1% HSA) | cAMP Rel EC50 (in the presence of 1% HSA)
B1 | 1.93 nM | 560 nM | –
B2 | 2.11 nM | – | 603 nM
B3 | 2.63 nM | 397 nM | –
B4 | 3.54 nM | 588 nM | –
B5 | 2.75 nM | 290 nM | –
B6 | 3.25 nM | 279 nM | –
B7 | 4.35 nM | 660 nM | –
B8 | 3.23 nM | 605 nM | –
B9 | 2.11 nM | – | 494 nM
B10 | 2.63 nM | 480 nM | –
B11 | 3.12 nM | 1010 nM | –
B12 | 2.55 nM | 627 nM | –
B13 | 1.85 nM | – | 375 nM
B14 | 4.4 nM | 878 nM | –
B15 | 2.71 nM | 620 nM | –
B16 | 1.8 nM | 437 nM | –
B17 | 3.07 nM | 612 nM | –
